Read-outs that look alike come from different tables or passages of the source. Starred links: 1 amine or outer side, 2 acyl side, 3 side chain; linkers in the order of their positions; H or OH if unused. Non-standard residues stand in square brackets, D forms with d. Primed or numbered codes have the meaning given here. *: point of attachment. dBip = N[C@H](Cc1ccc(-c2ccccc2)cc1)C(=O)O; Oic = O=C(O)[C@@H]1C[C@@H]2CCCC[C@@H]2N1; dPhe(4-Cl) = N[C@H](Cc1ccc(Cl)cc1)C(=O)O; Phe(4-I) = N[C@@H](Cc1ccc(I)cc1)C(=O)O; γGlu = O=C(O)[C@H](CCC(=O)[*:2])N[*:1]; d1Nal = N[C@H](Cc1cccc2ccccc12)C(=O)O; NMeR = CN[C@@H](CCCNC(=N)N)C(=O)O; Tridecanoyl = CCCCCCCCCCCCC(=O)*; hArg = N=C(N)NCCCC[C@H](N)C(=O)O; Cha = N[C@@H](CC1CCCCC1)C(=O)O; NMeL = CN[C@@H](CC(C)C)C(=O)O; AC4Abu″ = not defined here; Nle = CCCC[C@H](N)C(=O)O; AEEA = NCCOCCOCC(=O)O
T1: rat APJ receptor (rat, UniProt Q9JHG3 1-377)
T1 sequence (looked up): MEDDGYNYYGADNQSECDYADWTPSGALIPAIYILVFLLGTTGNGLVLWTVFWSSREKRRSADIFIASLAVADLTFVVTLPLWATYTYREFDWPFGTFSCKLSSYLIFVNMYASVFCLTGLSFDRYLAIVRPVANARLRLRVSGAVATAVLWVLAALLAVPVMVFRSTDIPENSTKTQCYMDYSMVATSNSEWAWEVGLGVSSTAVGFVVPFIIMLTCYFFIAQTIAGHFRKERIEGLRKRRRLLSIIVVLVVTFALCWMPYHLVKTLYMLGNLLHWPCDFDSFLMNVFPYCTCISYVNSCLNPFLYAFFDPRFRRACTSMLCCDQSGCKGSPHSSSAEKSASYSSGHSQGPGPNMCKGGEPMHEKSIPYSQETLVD

T2: human APJ receptor (human, UniProt P35414 1-380)
T2 sequence (looked up): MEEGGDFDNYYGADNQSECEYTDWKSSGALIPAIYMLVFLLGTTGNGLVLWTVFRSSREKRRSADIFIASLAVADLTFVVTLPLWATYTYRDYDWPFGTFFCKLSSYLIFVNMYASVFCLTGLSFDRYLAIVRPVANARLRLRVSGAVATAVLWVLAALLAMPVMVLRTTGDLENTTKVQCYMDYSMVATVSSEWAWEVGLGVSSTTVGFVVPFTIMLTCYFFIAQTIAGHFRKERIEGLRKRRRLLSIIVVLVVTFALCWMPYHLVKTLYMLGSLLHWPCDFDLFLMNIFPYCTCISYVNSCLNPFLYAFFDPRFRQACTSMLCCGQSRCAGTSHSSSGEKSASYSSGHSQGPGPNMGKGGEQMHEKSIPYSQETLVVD

T3: rat APJ receptor (rat, UniProt Q9JHG3 1-377)
T3 sequence (looked up): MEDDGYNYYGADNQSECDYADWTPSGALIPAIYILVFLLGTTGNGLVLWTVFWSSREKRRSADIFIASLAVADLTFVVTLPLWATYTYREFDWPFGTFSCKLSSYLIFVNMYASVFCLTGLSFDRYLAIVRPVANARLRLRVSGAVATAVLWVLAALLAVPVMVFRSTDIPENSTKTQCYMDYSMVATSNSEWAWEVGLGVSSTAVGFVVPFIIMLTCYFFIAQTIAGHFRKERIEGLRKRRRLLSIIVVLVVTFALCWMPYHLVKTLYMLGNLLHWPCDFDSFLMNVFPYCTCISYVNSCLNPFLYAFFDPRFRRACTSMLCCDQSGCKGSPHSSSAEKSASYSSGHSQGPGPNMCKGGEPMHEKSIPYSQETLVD


Key:
Test in all cases: cell-based or functional assay
rat APJ receptor [1] = molecular target: T1, rat APJ receptor
human APJ receptor = molecular target: T2, human APJ receptor
rat APJ receptor [2] = molecular target: T3, rat APJ receptor; remark: listed apart in the source

| Binder | EC50 Rat APJ Receptor (rat APJ receptor [1]) [µM] | EC50 Human APJ Receptor (human APJ receptor) [µM] | EC50 Rat APJ Receptor (rat APJ receptor [2]) [µM] |
| --- | --- | --- | --- |
| Tridecanoyl-[γGlu][AEEA][AEEA][hArg][dR]Q[hArg]PK[NMeL]AH[Nle]G[Oic][Phe(4-I)]P[dBip]-OH (SMILES CCCCCCCCCCCCC(=O)N[C@@H](CCC(=O)NCCOCCOCC(=O)NCCOCCOCC(=O)N[C@@H](CCCCNC(=N)N)C(=O)N[C@H](CCCNC(=N)N)C(=O)N[C@@H](CCC(N)=O)C(=O)N[C@@H](CCCCNC(=N)N)C(=O)N1CCC[C@H]1C(=O)N[C@@H](CCCCN)C(=O)N(C)[C@@H](CC(C)C)C(=O)N[C@@H](C)C(=O)N[C@@H](Cc1c[nH]cn1)C(=O)N[C@@H](CCCC)C(=O)NCC(=O)N1[C@H](C(=O)N[C@@H](Cc2ccc(I)cc2)C(=O)N2CCC[C@H]2C(=O)N[C@H](Cc2ccc(-c3ccccc3)cc2)C(=O)O)C[C@@H]2CCCC[C@@H]21)C(=O)O) [SEQ ID NO: 319] | 0.0631 | 0.0732 |  |
| Tridecanoyl-[γGlu][AEEA][AEEA][hArg][dR]Q[Nle]P[dR][NMeL]AAKG[Oic][Phe(4-I)]P[dBip]-OH (SMILES CCCCCCCCCCCCC(=O)N[C@@H](CCC(=O)NCCOCCOCC(=O)NCCOCCOCC(=O)N[C@@H](CCCCNC(=N)N)C(=O)N[C@H](CCCNC(=N)N)C(=O)N[C@@H](CCC(N)=O)C(=O)N[C@@H](CCCC)C(=O)N1CCC[C@H]1C(=O)N[C@H](CCCNC(=N)N)C(=O)N(C)[C@@H](CC(C)C)C(=O)N[C@@H](C)C(=O)N[C@@H](C)C(=O)N[C@@H](CCCCN)C(=O)NCC(=O)N1[C@H](C(=O)N[C@@H](Cc2ccc(I)cc2)C(=O)N2CCC[C@H]2C(=O)N[C@H](Cc2ccc(-c3ccccc3)cc2)C(=O)O)C[C@@H]2CCCC[C@@H]21)C(=O)O) [SEQ ID NO: 334] | 0.0447 | 0.0341 |  |
| Tridecanoyl-[γGlu][AEEA][AEEA][hArg][dR]Q[hArg]P[dR][NMeL]AH[Nle]G[Oic][Phe(4-I)]P[dBip]-OH (SMILES CCCCCCCCCCCCC(=O)N[C@@H](CCC(=O)NCCOCCOCC(=O)NCCOCCOCC(=O)N[C@@H](CCCCNC(=N)N)C(=O)N[C@H](CCCNC(=N)N)C(=O)N[C@@H](CCC(N)=O)C(=O)N[C@@H](CCCCNC(=N)N)C(=O)N1CCC[C@H]1C(=O)N[C@H](CCCNC(=N)N)C(=O)N(C)[C@@H](CC(C)C)C(=O)N[C@@H](C)C(=O)N[C@@H](Cc1c[nH]cn1)C(=O)N[C@@H](CCCC)C(=O)NCC(=O)N1[C@H](C(=O)N[C@@H](Cc2ccc(I)cc2)C(=O)N2CCC[C@H]2C(=O)N[C@H](Cc2ccc(-c3ccccc3)cc2)C(=O)O)C[C@@H]2CCCC[C@@H]21)C(=O)O) [SEQ ID NO: 318] | 0.0459 | 0.00744 |  |
| Tridecanoyl-[γGlu][AEEA][AEEA][hArg][dR]Q[hArg]PK[NMeL]SA[Nle]G[Oic][Phe(4-I)]P[dBip]-OH (SMILES CCCCCCCCCCCCC(=O)N[C@@H](CCC(=O)NCCOCCOCC(=O)NCCOCCOCC(=O)N[C@@H](CCCCNC(=N)N)C(=O)N[C@H](CCCNC(=N)N)C(=O)N[C@@H](CCC(N)=O)C(=O)N[C@@H](CCCCNC(=N)N)C(=O)N1CCC[C@H]1C(=O)N[C@@H](CCCCN)C(=O)N(C)[C@@H](CC(C)C)C(=O)N[C@@H](CO)C(=O)N[C@@H](C)C(=O)N[C@@H](CCCC)C(=O)NCC(=O)N1[C@H](C(=O)N[C@@H](Cc2ccc(I)cc2)C(=O)N2CCC[C@H]2C(=O)N[C@H](Cc2ccc(-c3ccccc3)cc2)C(=O)O)C[C@@H]2CCCC[C@@H]21)C(=O)O) [SEQ ID NO: 325] | 0.00476 | 0.00396 |  |
| Tridecanoyl-[γGlu][AEEA][AEEA][hArg][dR]Q[hArg]P[dR][NMeL]SH[Nle]G[Oic][Phe(4-I)]P[dBip]-OH (SMILES CCCCCCCCCCCCC(=O)N[C@@H](CCC(=O)NCCOCCOCC(=O)NCCOCCOCC(=O)N[C@@H](CCCCNC(=N)N)C(=O)N[C@H](CCCNC(=N)N)C(=O)N[C@@H](CCC(N)=O)C(=O)N[C@@H](CCCCNC(=N)N)C(=O)N1CCC[C@H]1C(=O)N[C@H](CCCNC(=N)N)C(=O)N(C)[C@@H](CC(C)C)C(=O)N[C@@H](CO)C(=O)N[C@@H](Cc1c[nH]cn1)C(=O)N[C@@H](CCCC)C(=O)NCC(=O)N1[C@H](C(=O)N[C@@H](Cc2ccc(I)cc2)C(=O)N2CCC[C@H]2C(=O)N[C@H](Cc2ccc(-c3ccccc3)cc2)C(=O)O)C[C@@H]2CCCC[C@@H]21)C(=O)O) [SEQ ID NO: 312] | 0.0106 | 0.0136 |  |
| Tridecanoyl-[γGlu][AEEA][AEEA][hArg][dR]Q[hArg]P[dR][NMeL]AA[Nle]G[Oic][Phe(4-I)]P[dBip]-OH (SMILES CCCCCCCCCCCCC(=O)N[C@@H](CCC(=O)NCCOCCOCC(=O)NCCOCCOCC(=O)N[C@@H](CCCCNC(=N)N)C(=O)N[C@H](CCCNC(=N)N)C(=O)N[C@@H](CCC(N)=O)C(=O)N[C@@H](CCCCNC(=N)N)C(=O)N1CCC[C@H]1C(=O)N[C@H](CCCNC(=N)N)C(=O)N(C)[C@@H](CC(C)C)C(=O)N[C@@H](C)C(=O)N[C@@H](C)C(=O)N[C@@H](CCCC)C(=O)NCC(=O)N1[C@H](C(=O)N[C@@H](Cc2ccc(I)cc2)C(=O)N2CCC[C@H]2C(=O)N[C@H](Cc2ccc(-c3ccccc3)cc2)C(=O)O)C[C@@H]2CCCC[C@@H]21)C(=O)O) [SEQ ID NO: 330] | 0.0561 | 0.0397 |  |
| Tridecanoyl-[γGlu][AEEA][AEEA][hArg][dR]Q[hArg]PK[NMeL]SH[Nle]G[Oic][Phe(4-I)]P[dBip]-OH (SMILES CCCCCCCCCCCCC(=O)N[C@@H](CCC(=O)NCCOCCOCC(=O)NCCOCCOCC(=O)N[C@@H](CCCCNC(=N)N)C(=O)N[C@H](CCCNC(=N)N)C(=O)N[C@@H](CCC(N)=O)C(=O)N[C@@H](CCCCNC(=N)N)C(=O)N1CCC[C@H]1C(=O)N[C@@H](CCCCN)C(=O)N(C)[C@@H](CC(C)C)C(=O)N[C@@H](CO)C(=O)N[C@@H](Cc1c[nH]cn1)C(=O)N[C@@H](CCCC)C(=O)NCC(=O)N1[C@H](C(=O)N[C@@H](Cc2ccc(I)cc2)C(=O)N2CCC[C@H]2C(=O)N[C@H](Cc2ccc(-c3ccccc3)cc2)C(=O)O)C[C@@H]2CCCC[C@@H]21)C(=O)O) [SEQ ID NO: 313] | 0.0104 | 0.0147 |  |
| Tridecanoyl-[γGlu][AEEA][AEEA][hArg][dR]Q[Nle]P[dR][NMeL]AHKG[Oic][Phe(4-I)]P[dBip]-OH (SMILES CCCCCCCCCCCCC(=O)N[C@@H](CCC(=O)NCCOCCOCC(=O)NCCOCCOCC(=O)N[C@@H](CCCCNC(=N)N)C(=O)N[C@H](CCCNC(=N)N)C(=O)N[C@@H](CCC(N)=O)C(=O)N[C@@H](CCCC)C(=O)N1CCC[C@H]1C(=O)N[C@H](CCCNC(=N)N)C(=O)N(C)[C@@H](CC(C)C)C(=O)N[C@@H](C)C(=O)N[C@@H](Cc1c[nH]cn1)C(=O)N[C@@H](CCCCN)C(=O)NCC(=O)N1[C@H](C(=O)N[C@@H](Cc2ccc(I)cc2)C(=O)N2CCC[C@H]2C(=O)N[C@H](Cc2ccc(-c3ccccc3)cc2)C(=O)O)C[C@@H]2CCCC[C@@H]21)C(=O)O) [SEQ ID NO: 322] | 0.0265 | 0.0163 |  |
| Tridecanoyl-[AC4Abu″][AEEA][AEEA][hArg]Q[dR]P[NMeR][Cha]SHKG[Oic][Nle][d1Nal]-OH (reading uncertain) [apelin polypeptide SEQ ID NO: 165] |  |  | 0.0303 |
| Tridecanoyl-[AC4Abu″][AEEA][AEEA][hArg]Q[dR]P[NMeR][Cha]SHKG[Oic][Nle]P[dPhe(4-Cl)]-OH (reading uncertain) [apelin polypeptide SEQ ID NO: 230] |  |  | 0.0138 |
| Tridecanoyl-[γGlu][AEEA][AEEA][hArg][dR]Q[hArg]P[dR][NMeL]SA[Nle]G[Oic][Phe(4-I)]P[dBip]-OH (SMILES CCCCCCCCCCCCC(=O)N[C@@H](CCC(=O)NCCOCCOCC(=O)NCCOCCOCC(=O)N[C@@H](CCCCNC(=N)N)C(=O)N[C@H](CCCNC(=N)N)C(=O)N[C@@H](CCC(N)=O)C(=O)N[C@@H](CCCCNC(=N)N)C(=O)N1CCC[C@H]1C(=O)N[C@H](CCCNC(=N)N)C(=O)N(C)[C@@H](CC(C)C)C(=O)N[C@@H](CO)C(=O)N[C@@H](C)C(=O)N[C@@H](CCCC)C(=O)NCC(=O)N1[C@H](C(=O)N[C@@H](Cc2ccc(I)cc2)C(=O)N2CCC[C@H]2C(=O)N[C@H](Cc2ccc(-c3ccccc3)cc2)C(=O)O)C[C@@H]2CCCC[C@@H]21)C(=O)O) [SEQ ID NO: 324] | 0.0204 | 0.0149 |  |

Reference: US10941182 (Amgen, dated 2021)
